Results from IntAct's records for PubMed 28965847.

B1: Suppressor of fused homolog (Homo sapiens), Q9UMX1 (parent)
chain: MAELRPSGAPGPTAPPAPGPTAPPAFASLFPPGLHAIYGECRRLYPDQPNPLQVTAIVKYWLGGPDPLDYVSMYRNVGSPSANIPEHWHYISFGLSDLYGDNRVHEFTGTDGPSGFGFELTFRLKRETGESAPPTWPAELMQGLARYVFQSENTFCSGDHVSWHSPLDNSESRIQHMLLTEDPQMQPVQTPFGVVTFLQIVGVCTEELHSAQQWNGQGILELLRTVPIAGGPWLITDMRRGETIFEIDPHLQERVDKGIETDGSNLSGVSAKCAWDDLSRPPEDDEDSRSICIGTQPRRLSGKDTEQIRETLRRGLEINSKPVLPPINPQRQNGLAHDRAPSRKDSLESDSSTAIIPHELIRTRQLESVHLKFNQESGALIPLCLRGRLLHGRHFTYKSITGDMAITFVSTGVEGAFATEEHPYAAHGPWLQILLTEEFVEKMLEDLEDLTSPEEFKLPKEYSWPEKKLKVSILPDVVFDSPLH

Variants of: B1
Conditions: with gli3_mouse Gli3, Q61602
Chain of gli3_mouse Gli3, Q61602 (Q61602 whole entry): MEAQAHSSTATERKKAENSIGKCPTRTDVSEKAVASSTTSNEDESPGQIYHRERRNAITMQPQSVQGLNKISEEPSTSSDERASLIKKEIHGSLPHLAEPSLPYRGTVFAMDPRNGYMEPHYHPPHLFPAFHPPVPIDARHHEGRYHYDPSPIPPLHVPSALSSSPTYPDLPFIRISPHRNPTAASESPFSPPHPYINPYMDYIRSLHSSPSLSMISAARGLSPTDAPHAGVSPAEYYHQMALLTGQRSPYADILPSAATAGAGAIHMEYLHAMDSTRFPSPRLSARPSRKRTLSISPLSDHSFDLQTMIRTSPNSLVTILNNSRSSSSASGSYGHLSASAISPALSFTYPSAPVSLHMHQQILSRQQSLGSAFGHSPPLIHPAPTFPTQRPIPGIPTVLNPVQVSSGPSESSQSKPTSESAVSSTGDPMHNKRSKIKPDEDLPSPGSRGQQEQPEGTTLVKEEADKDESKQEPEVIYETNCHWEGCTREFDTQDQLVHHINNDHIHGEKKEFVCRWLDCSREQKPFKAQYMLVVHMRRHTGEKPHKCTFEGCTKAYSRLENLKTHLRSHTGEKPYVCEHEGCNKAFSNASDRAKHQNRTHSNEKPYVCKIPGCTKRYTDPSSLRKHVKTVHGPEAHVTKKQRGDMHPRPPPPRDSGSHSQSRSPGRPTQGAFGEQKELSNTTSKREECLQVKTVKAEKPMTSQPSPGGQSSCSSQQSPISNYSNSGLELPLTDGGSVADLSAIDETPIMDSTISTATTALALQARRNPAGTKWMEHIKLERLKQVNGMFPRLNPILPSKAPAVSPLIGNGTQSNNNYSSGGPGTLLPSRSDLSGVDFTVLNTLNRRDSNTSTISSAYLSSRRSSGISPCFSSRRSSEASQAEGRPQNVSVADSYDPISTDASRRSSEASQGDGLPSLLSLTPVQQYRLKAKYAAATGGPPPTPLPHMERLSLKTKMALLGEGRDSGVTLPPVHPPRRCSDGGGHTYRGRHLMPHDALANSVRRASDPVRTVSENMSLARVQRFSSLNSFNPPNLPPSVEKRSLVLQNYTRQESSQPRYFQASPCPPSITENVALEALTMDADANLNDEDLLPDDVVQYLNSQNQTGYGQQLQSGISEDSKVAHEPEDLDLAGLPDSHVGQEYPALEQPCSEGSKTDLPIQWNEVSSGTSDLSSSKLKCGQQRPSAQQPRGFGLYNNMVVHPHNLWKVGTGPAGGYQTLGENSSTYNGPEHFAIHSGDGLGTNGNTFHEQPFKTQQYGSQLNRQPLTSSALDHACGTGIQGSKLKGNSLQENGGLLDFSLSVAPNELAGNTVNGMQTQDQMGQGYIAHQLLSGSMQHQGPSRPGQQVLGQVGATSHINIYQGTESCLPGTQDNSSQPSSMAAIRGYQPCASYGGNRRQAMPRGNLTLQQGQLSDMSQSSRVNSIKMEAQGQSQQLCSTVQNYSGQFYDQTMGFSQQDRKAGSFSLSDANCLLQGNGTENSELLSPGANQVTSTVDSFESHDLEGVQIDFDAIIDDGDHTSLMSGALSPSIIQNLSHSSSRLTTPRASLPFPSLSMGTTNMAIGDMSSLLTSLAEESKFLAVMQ

Row | Variant | effect of a mutation on the interaction
1 | MAELRPSGAPGPTAPPAPGPTAPPAFASLFPPGLHAIYGECRRLYPDQPNPLQVTAIVKYWLGGPDPLDYVSMYRNVGSPSANIPEHWHYISFGLSDLYGDNRVHEFTGTDGPSGFGFELTFRLKRETGESAPPTWPAELMQGLARYVFQSENTFCSGDHVSWHSPLDNSESRIQRMLLTEDPQMQPVQTPFGVVTFLQIVGVCTEELHSAQQWNGQGILELLRTVPIAGGPWLITDMRRGETIFEIDPHLQERVDKGIETDGSNLSGVSAKCAWDDLSRPPEDDEDSRSICIGTQPRRLSGKDTEQIRETLRRGLEINSKPVLPPINPQRQNGLAHDRAPSRKDSLESDSSTAIIPHELIRTRQLESVHLKFNQESGALIPLCLRGRLLHGRHFTYKSITGDMAITFVSTGVEGAFATEEHPYAAHGPWLQILLTEEFVEKMLEDLEDLTSPEEFKLPKEYSWPEKKLKVSILPDVVFDSPLH [H176R] | decreasing interaction strength
2 | MAELRPSGAPGPTAPPAPGPTAPPAFASLFPPGLHAIYGECRRLYPDQPNPLQVTAIVKYWLGGPDPLDYVSMYRNVGSPSANIPEHWHYISFGLSDLYGDNRVHEFTGTDGPSGFGFELTFRLKRETGESAPPTWPAELMQGLARYVFQSENTFCSGDHVSWHSPLDNSESRIQHMLLTEDPQMQPVQTPFGVVTFLQIVGVCTEELHSAQQWNGQGILELLRTVPIAGGPWLITDMRRGETIFEIDPHLQERVDKGIETDGSNLSGVSAKCAWDDLSRPPEDDEDSRSICIGTQPRRLSGKDTEQIRETLRRGLEINSKPVLPPINPQRQNGLAHDRAPSRKDSLESDSSTAIIPHELIRTRQLESVHLKFNQESGALIPLCLRGRLLHGRHFTYKSITGDMATTFVSTGVEGAFATEEHPYAAHGPWLQILLTEEFVEKMLEDLEDLTSPEEFKLPKEYSWPEKKLKVSILPDVVFDSPLH [I406T] | disrupting interaction strength
